In patent US7479478B2, “Human parathyroid hormone modifications, preparation and use” (The General Hospital Corporation, priority 1998, dated 2009):
“Also recorded” adds a separate entry of the source. Blank lines part the entries; values can stand above or below the substance they belong to. No end group written: not given here.

Tests used:
[1] = target: T1, human PTH-1 receptors (Homo sapiens, UniProt Q03431); experiment: PLC activation (IP3 formation) in HKRK B7 cells; format: cell-based; details: for EC50: read-out: EC50 for PLC activation (IP3 formation); for IP3 Formation (% Maximum): % of maximal response to hPTH-(1-34); for PLC activation (IP3 formation), result in words: up to 1000 nM or 10 μM; for PLC activation, percent of basal: 1000 nM peptide
T1 construct: expressed in transfected cells
T1 sequence (Q03431 27-593): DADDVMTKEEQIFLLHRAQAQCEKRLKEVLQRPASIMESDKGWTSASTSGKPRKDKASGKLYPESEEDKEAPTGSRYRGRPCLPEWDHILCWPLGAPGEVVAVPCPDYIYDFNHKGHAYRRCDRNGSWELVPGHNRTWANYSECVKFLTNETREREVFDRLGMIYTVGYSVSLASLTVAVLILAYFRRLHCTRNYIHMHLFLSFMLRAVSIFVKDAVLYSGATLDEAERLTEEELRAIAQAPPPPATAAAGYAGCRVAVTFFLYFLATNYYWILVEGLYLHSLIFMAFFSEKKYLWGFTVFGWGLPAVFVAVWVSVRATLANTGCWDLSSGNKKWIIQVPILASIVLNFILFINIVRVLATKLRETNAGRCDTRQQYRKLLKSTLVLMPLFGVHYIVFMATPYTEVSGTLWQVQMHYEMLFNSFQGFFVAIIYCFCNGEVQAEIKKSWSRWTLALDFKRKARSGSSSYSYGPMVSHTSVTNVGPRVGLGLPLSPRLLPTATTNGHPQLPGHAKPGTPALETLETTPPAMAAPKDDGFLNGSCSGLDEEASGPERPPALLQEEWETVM
Procedure: (§1) HKRK B7 or EW5 cells (32), subclones of LLC-PKI renal epithelial cells that stably express human or rat PTH-1 receptors (950,000 and 320,000 receptors/cell, respectively), were maintained under 5% CO2 in air in Dulbecco's modified essential medium containing 7% fetal bovine serum (FBS) and 1% penicillin/streptomycin (GIBCO-BRL, Grand Island, N.Y.). HEK-293 and COS-7 cells were cultured similarly, except that 10% FBS was used in the medium. Cells were seeded into 24-well plates two days before assay at a density of 2-2.5×10^5 cells/well (HKRK B7 or EW 5 cells) or 6×10^5 cells/well (in 6-well plates) (HEK-293 cells). In experiments involving HEK-293 cells, DNA transfections were performed 24 hr after plating and inositol radiolabel was added 24 hr thereafter (see below). COS-7 cell transfections were performed as previously described (Gardella, T. J., et al., Endocrinology 132(5):2024-2030 (1993))
PLC was activated by PTH agonists in the presence of 30 mM LiCl at 37° C. for 30 min after 16 hr of labeling with [^3H]myo-inositol (3 uCi/ml) in serum-free medium containing 0.1% bovine serum albumin. The reactions were stopped by rapid aspiration and addition of cold 5% TCA. Water-soluble radiolabeled inositol trisphosphate (IP3) was isolated after ether extraction by ion-exchange chromatography (Guo, J., et al., Endocrinology 136(9):3884-3891 (1995)). In experiments involving HEK 293 cells, cells previously transfected with human PTHR cDNA (in the pcDNA1 expression vector HKRK) using Lipofectamine (Gibco BRL) were labeled with [^3H]myo-inositol and assayed as described above, except that total water-soluble [^3H]inositol polyphosphates were collected as a single fraction from the ion-exchange columns.

[2] = target: T1, human PTH-1 receptors; experiment: Intracellular cAMP accumulation (adenylyl cyclase, AC, activation) in HKRK B7 cells; format: cell-based; details: for Cyclic AMP accumulation (% Maximum): % of maximal response to hPTH-(1-34), HKRK B7; for AC activation (cAMP accumulation), result in words: HKRK B7 cells, compared with hPTH-(1-34) or parent peptide
Procedure: as §1, with “(1993)) Intracellular cAMP accumulation, PLC activation and PTHR binding affinity were measured as previously reported (Bringhurst, F. R., et al., Endocrinology 132(5):2090-2098 (1993); Guo, J., et al., Endocrinology 136(9):3884-3891 (1995)). Intracellular cAMP accumulation was measured in extracts of cells that were exposed to human PTH peptides in the presence of isobutylmethyxanthine (IBMX, 1 mM) at 37° C. for 15 min. After terminating the reactions by aspiration and freezing in liquid nitrogen, cell monolayers were extracted with 50 mM HCl and cAMP was measured using a radioimmunoassay kit (Dupont-New England Nuclear, Boston, Mass.).” for “(1993))”

[3] = target: T1, human PTH-1 receptors; experiment: Radioligand competition binding with 125I-[Nle8,21,Tyr34]rat PTH-(1-34) in HKRK B7 cells
Procedure: as §1, with “(1993)) Radioligand competition binding assays were performed at 2-8° C. for 6 hr using ^125I-[Nle^8,21,[…]]rat PTH-(1-34) (100,000 cpm/well) in the presence or absence of non-radioactive hPTH-(1-34) analogs. Cell layers were washed three times before solubilization for determination of cell-associated radioactivity.” for “(1993))”

[4] = test system: membrane-bound PKCs; details: osteoblast-like ROS 17/2 cells; Neugebauer et al. 1995; cited from earlier work
[5] = target: T1, human PTH-1 receptors; details: HKRK B7 cells; Takasu and Bringhurst 1998; cited from earlier work
[6] = target: T1, human PTH-1 receptors; details: HKRK B7 cells; Takasu and Bringhurst 1998; cited from earlier work; remark: listed apart in the source

Substance: AVSEIQLMHNLGKHLNSMRRVEWLRKK [[Ala^1,Arg^19]hPTH-(1-27)]
Cyclic AMP accumulation (% Maximum) ([2]; 0.01 nM): −0.2 ± 0.1 % Maximum
Cyclic AMP accumulation (% Maximum) ([2]; 0.1 nM): 0.6 ± 0.3 % Maximum
Cyclic AMP accumulation (% Maximum) ([2]; 1 nM): 7 ± 0.6 % Maximum
Cyclic AMP accumulation (% Maximum) ([2]; 10 nM): 50 ± 5.1 % Maximum
Cyclic AMP accumulation (% Maximum) ([2]; 100 nM): 92 ± 15 % Maximum
Cyclic AMP accumulation (% Maximum) ([2]; 1000 nM): 99 ± 8.8 % Maximum
IP3 Formation (% Maximum) ([1]; 1000 nM, HKRK B7): 1.5 ± 4.8 % Maximum
IP3 Formation (% Maximum) ([1]; 10000 nM, HKRK B7): 6.9 ± 10 % Maximum

Substance: AVSEIQLMHNLGKHLNSMRRVEWLRKKL-NH2 [[Ala^1,Arg^19]hPTH-(1-28)]
AC activation (cAMP accumulation), result in words [2]: indistinguishable from that of hPTH-(1-34)
EC50 ([1]; HKRK B7 cells): 200 nM
fold improvement of EC50 for PLC activation by the Arg^19 modification ([1]; over [Ala^1]hPTH-(1-28), HKRK B7): 5 fold

Substance: SerValSerGluIleGlnLeuMetHisAsnLeuGlyLysHis LeuAsnSerMetGluArgValGluTrpLeuArgLysLys (SVSEIQLMHNLGKHLNSMERVEWLRKK-NH2; listed as Homo sapiens) [hPTH-(1-27)]
stimulation of activity of membrane-bound PKCs [4]: incapable of stimulating

Substance: [Ala^1]hPTH-(1-34): hPTH-(1-34) with Ala^1 for Ser^1 [reference compound]
AC activation (cAMP accumulation), result in words [2]: indistinguishable from hPTH-(1-34)
PLC activation (IP3 formation), result in words ([1]; HKRK B7 cells): indistinguishable from hPTH-(1-34)
binding affinity, result in words [3]: indistinguishable from hPTH-(1-34)

Substance: [Gly^1]hPTH-(1-34): hPTH-(1-34) with Gly^1 for Ser^1 [reference compound]
AC activation (cAMP accumulation), result in words [2]: unchanged
PLC activity as % of the hPTH-(1-34) maximum ([1]; 1000 nM, highest concentration tested, HKRK B7 cells): 25%
binding affinity, result in words [3]: unchanged

Substance: [Tyr^0]hPTH-(1-34): hPTH-(1-34) with a tyrosine residue interposed at the N-terminus; purchased from Sigma (YSVSEIQLMHNLGKHLNSMERVEWLRKKLQDVHNF) [reference compound]
PLC activation, percent of basal ([1]; HKRK B7 cells): 105±5% of basal

Substance: hPTH-(1-26): C-truncated human PTH peptide (SVSEIQLMHNLGKHLNSMERVEWLRK)
stimulation of activity of membrane-bound PKCs [4]: incapable of stimulating

Substance: hPTH-(1-30): C-truncated human PTH peptide (SVSEIQLMHNLGKHLNSMERVEWLRKKLQD-NH2; UniProt P01270 32-61, looked up, fragment)
AC activation, previously reported [5]: fully activated
PLC activation, previously reported [6]: fully activated
stimulation of activity of membrane-bound PKCs [4]: incapable of stimulating

Substance: hPTH-(1-31): C-truncated human PTH peptide
AC activation, previously reported [5]: fully activated
PLC activation, previously reported [6]: fully activated

Further lines, with some results ahead:

EC50 ([1]; HKRK B7 cells): 1000 nM
Substance: AVSEIQLMHNLGKHLNSMERVEWLRKKL-NH2 [[Ala^1]hPTH-(1-28)]

binding affinity, result in words [3]: modestly impaired
Substance: GlyValSerGluIleGInLeuMetHisAsnLeuGlyLysHisLeuAsnSerMetGluArgVal GluTrpLeuArgLysLysLeu (GVSEIQLMHNLGKHLNSMERVEWLRKKL; listed as Homo sapiens) [[Gly^1]hPTH-(1-28)]
PLC activation (IP3 formation), result in words ([1]; HKRK B7 cells): selectively eliminated PLC signaling, apart from a weak response at 10 μM

AC activation (cAMP accumulation), result in words [2]: unaffected
EC50 ([1]; HKRK B7 cells): 300 nM
PLC activation (IP3 formation), result in words ([1]; HKRK B7 cells): maximally activated
IC50 ([3]; read-out: apparent IC50 for binding): 100 nM
Substance: SVSEIQLMHNLGKHLNSMRRVEWLRKKL-NH2 [[Arg^19]hPTH-(1-28)]

PLC activation, percent of basal ([1]; HKRK B7 cells): 101±6% of basal
Substance: desamino-hPTHrP(1-36): hPTHrP(1-36) with the α-amino group removed [reference compound]

AC activation (cAMP accumulation), result in words [2]: only minimally active
Substance: hPTH-(1-24): C-truncated human PTH peptide (SVSEIQLMHNLGKHLNSMERVEWL)

AC activation (cAMP accumulation), result in words [2]: nearly identical
Substance: hPTH-(1-25): C-truncated human PTH peptide (SVSEIQLMHNLGKHLNSMERVEWLR)

PLC activation (IP3 formation), result in words ([1]; HKRK B7 cells): did not elicit PLC activity
Substance: hPTH-(2-34): hPTH-(1-34) lacking residue 1 (VSEIQLMHNLGKHLNSMERVEWLRKKLQDVHNY) [reference compound]
AC activation (cAMP accumulation), result in words [2]: comparable in magnitude and sensitivity to that of hPTH-(1-34); also recorded: equipotent with hPTH-(1-34)

PLC activation, percent of basal ([1]; HKRK B7 cells): 178±12% of basal
Substance: hPTHrP(1-36): human PTH-related peptide fragment 1-36 [reference compound]
